The values below come from paper PMC10284694, “Genome expansion by a CRISPR trimmer-integrase”.

Series [1] deals with Megasphaera NM10-related Cas1 (Megasphaera NM10-related). Briefly: cryo-EM structure; 50 µM Cas1, 50 µM Cas2/DEDDh and 12.5 µM prespacer or half-site DNA mixed, dialysed 2 h at room temperature, purified over Superose 6 Increase 10/300 GL; complexes bound to DNA.
The target in series [2] is Megasphaera NM10-related Cas2 and DEDDh fusion protein (Cas2/DEDDh) (Megasphaera NM10-related). Described as above.
The target in series [3] is T1, Cas1 (type I-E);Cas2/DEDDh (natural Cas2-DEDDh fusion) (Megasphaera NM10-related;Megasphaera …, UniProt A0AA82WPF9;A0AA82WPG7 1-316;1-289, |).
T1 sequence 1: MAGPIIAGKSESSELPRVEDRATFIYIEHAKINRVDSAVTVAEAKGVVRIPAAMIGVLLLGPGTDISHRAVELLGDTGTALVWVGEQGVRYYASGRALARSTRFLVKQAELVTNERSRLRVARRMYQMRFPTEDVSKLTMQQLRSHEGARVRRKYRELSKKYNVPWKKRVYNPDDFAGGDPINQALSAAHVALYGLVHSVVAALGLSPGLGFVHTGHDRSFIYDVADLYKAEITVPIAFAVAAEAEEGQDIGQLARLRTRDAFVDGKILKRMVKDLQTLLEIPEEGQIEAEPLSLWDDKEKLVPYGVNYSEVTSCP
T1 sequence 2: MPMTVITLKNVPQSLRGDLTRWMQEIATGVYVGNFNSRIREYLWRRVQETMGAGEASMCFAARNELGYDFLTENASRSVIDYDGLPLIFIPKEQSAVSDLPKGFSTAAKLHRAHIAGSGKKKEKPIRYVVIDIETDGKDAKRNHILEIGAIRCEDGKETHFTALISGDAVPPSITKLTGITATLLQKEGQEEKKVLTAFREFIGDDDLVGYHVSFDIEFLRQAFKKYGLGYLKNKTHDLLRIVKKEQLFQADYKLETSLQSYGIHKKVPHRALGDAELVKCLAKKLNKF
In words: cryo-EM structure (2.9 A); Cryo-EM sample buffer not in the material; DNA annealed in 20 mM HEPES pH 7.5, 25 mM KCl, 10 mM MgCl2; protein storage 20 mM HEPES pH 7.5, 500 mM KCl, 1 mM TCEP, 5% glycerol. Particulars: protein: recombinant;recombinant; tags: 10xHis-MBP removed with TEV;10xHis-MBP removed with TEV; chain copies: 4;2; 23 bp duplex, 3' overhangs 15 nt on both strands (5 nt visible).

The target in series [4] is T1, Cas1 (type I-E);Cas2/DEDDh (natural …). Briefly: cryo-EM structure (3.1 A); Cryo-EM sample buffer not in the material; DNA annealed in 20 mM HEPES pH 7.5, 25 mM KCl, 10 mM MgCl2; protein storage 20 mM HEPES pH 7.5, 500 mM KCl, 1 mM TCEP, 5% glycerol. The note with it: protein: recombinant;recombinant; tags: 10xHis-MBP removed with TEV;10xHis-MBP removed with TEV; chain copies: 4;2; 23 bp duplex, 3' overhangs 15 nt on both strands before trimming.

Positions count from the first letter of the chain named.

The molecule Megasphaera NM10-related Cas1 (enzyme) displayed a stoichiometry N in series [1] of 2.
In turn, “Megasphaera NM10-related Cas2 and DEDDh fusion protein (Cas2/DEDDh) (enzyme)” yielded a stoichiometry N in series [2] of 2.

B1: CryoEM prespacer, PAM-deficient (dsDNA)
DNA 1: ACTCATGATGCACAAGTGGTTGCGCGTGAACCCAGTTG
DNA 2: GCAACCACTTGTGCATCATGAGTGATGAAACCCAGTTG
modifications: phosphorothioate between nt 28 and 29 of each strand
Turning to B1, in series [3], the binding result is reported as “binds”.

B2: CryoEM prespacer, TT PAM-containing (dsDNA)
DNA 1: B1 DNA 1 with A29T, A30T
DNA 2: B1 DNA 2
modifications: phosphorothioate between nt 33 and 34 of strand 1 and between nt 28 and 29 of strand 2
Regarding B2, the binding result in series [4] was “binds”.

By stoichiometry N is commonly meant the number of molecules, sites or subunits per partner or assembly.
